The numbers were not newly measured in paper PMC9377792, which cites them from elsewhere.

The data set has as its target uPAR (Homo sapiens) (UniProt Q03405).
Sequence of UniProt Q03405 (Q03405 23-305): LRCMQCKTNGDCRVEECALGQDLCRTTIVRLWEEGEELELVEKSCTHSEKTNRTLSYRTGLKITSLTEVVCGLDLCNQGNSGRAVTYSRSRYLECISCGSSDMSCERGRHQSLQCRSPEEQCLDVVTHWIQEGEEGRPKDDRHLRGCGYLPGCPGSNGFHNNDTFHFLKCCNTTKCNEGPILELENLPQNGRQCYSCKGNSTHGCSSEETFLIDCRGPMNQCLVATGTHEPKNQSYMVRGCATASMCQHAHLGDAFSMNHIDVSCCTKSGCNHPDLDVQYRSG

In the case of Factor XII (from UniProt P00748), the Kd (usually the free concentration of one partner at which half of the binding sites on the other are occupied at equilibrium, for simple one-to-one binding) was 37.1 nM.
